Tests used:
[1] = molecular target: T1, TGFβ2 (transforming growth factor beta 2) (Homo sapiens) (UniProt P61812); test: filter; conditions: 2'-F C and U
T1 sequence: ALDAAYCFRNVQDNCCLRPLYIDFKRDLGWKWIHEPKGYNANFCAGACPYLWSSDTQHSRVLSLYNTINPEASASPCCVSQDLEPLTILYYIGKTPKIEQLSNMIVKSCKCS

[2] = molecular target: T2, TGFβ3 (transforming growth factor beta 3) (Homo sapiens) (UniProt P10600); test: filter; conditions: 2'-F C and U; round 0 pool
T2 sequence: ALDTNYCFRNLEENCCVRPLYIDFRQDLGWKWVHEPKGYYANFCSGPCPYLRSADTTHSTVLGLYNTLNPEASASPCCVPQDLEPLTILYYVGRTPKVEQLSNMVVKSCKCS

| Sequence | Kd ([1]; biased round 0 pool, protein excess) [µM] | Kd [2] [µM] | Kd ([1]; round 0 pool, printed as >10 [M) [µM] |
| --- | --- | --- | --- |
| GGGAGGACGAUGCGGNNNNNNNNNNNNNNNNNNNNNNNNNNNNNNNNNNCAGACGACUCGCCCGA [34N7.21a-21 biased round 0 pool] | 0.87 | – | – |
| GGGAGGACGAUGCGGNNNNNNNNNNNNNNNNNNNNNNNNNNNNNNNNNNNNNNNNCAGACGACUCGCCCGA [round 0 40N7 pool] | – | > 10 | > 10 |

Source: patent publication US20040258656
